Laboratory results: the supplement of paper PMC10471632, “Protein engineering and iterative multimodule optimization for vitamin B6 production in Escherichia coli” (Nature Communications, 2023)
± gives the standard deviation of the averaged measurements.

B1: library; numbered along this chain (parent)
chain: MAELLLGVNIDHIATLRNARGTAYPDPVQAAFIAEQAGADGITVHLREDRRHITDRDVRILRQTLDTRMNLEMAVTEEMLAIAVETKPHFCCLVPEKRQEVTTEGGLDVAGQRDKMRDACKRLADAGIQVSLFIDADEEQIKAAAEVGAPFIEIHTGCYADAKTDAEQAQELARIAKAATFAASLGLKVNAGHGLTYHNVKAIAAIPEMHELNIGHAIIGRAVMTGLKDAVAEMKRLMLEARG

Variants of: B1
Assay: pyridoxine titer in culture supernatant of strain expressing the PdxJ variant; higher = more PN produced (higher in vivo pathway activity of the PdxJ variant)
Settings: host strain: E. coli LL006; 48 h; temperature: 37 °C; FM1.4
Description: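 Rosetta-designed single to quadruple mutants of E. coli PdxJ (PNP synthase) were expressed from pRSFDuet-1 in the engineered chassis E. coli LL006 (MG1655 ΔpdxH::pdxST, pta::Eme_pdxP). Strains were grown in 24 deep-well plates in 2 mL FM1.4 glycerol medium at 37 °C and 800 rpm for 48 h. Extracellular pyridoxine (PN) titer was quantified by HPLC with fluorescence detection; two biological replicates, with the WT pdxJ strain (LL137, about 0.5 mg/L) as control.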

Variant | pyridoxine titer [mg/L]
MAELLLGVNLDHIATLRNARDVAYPDPVQAAFIAEQAGADGITVHLREDRRHITDRDVRILRQTLDTRMNLEMAVTEEMLAIAVETKPHFCCLVPEKRQEVTTTGGLDVAGQRDKMRDACKRLADAGIQVSLFIDADEEQIKAAAEVGAPFIEIHTGCYADAKTDAEQAQELARIAKAATFAASLGLKVNAGHGLTYHNVKAIAAIPEMHELNIGHAIIGRAVMTGLKDAVAEMKRLMLEARG [I10L G21D T22V E104T] | 2.44 ± 1.1
MAELLLGVNLDHIATLRNARGTAYPDPVQAAFIAEQAGADGITVHLREDRRHITDRDVRILRQTLDTRMNLEMAVTEEMLAIAVETKPHFCCLVPEKRQEVTTEGGLDVAGQRDKMRDACKRLADAGIQVSLFIDADEEQIKAAAEVGAPFIEIHTGCYADAKTDAEQAQELARIAKAATFAASLGLKVNAGHCLLYHNVKAIAAIPEMHELNIGHALIGRAVMTGLKDAVAEMKRLMLEARG [I10L G194C T196L I218L] | 0.562 ± 0.075
MAELLLGVNLDHIATLRNARGTAYPDPVQAAFIAEQAGADGITVHLREDRRHITDRDVRILRQTLDTRMNLEMAVTEEMLAIAVETKPHFCCLVPEKRQEVTTTGGLDVAGQRDKMRDACKRLADAGIQVSLFIDADEEQIKAAAEVGAPFIEIHTGCYADAKTDAEQAQELARIAKAATFAASLGLKVNAGHQLTYHNVKAIAAIPEMHELNIGHALIGRAVMTGLKDAVAEMKRLMLEARG [I10L E104T G194Q I218L] | 1.46 ± 0.011
MAELLLGVNLDHIATLRNARGTAYPDPVQAAFIAEQAGADGITVHLREDRRHITDRDVRILRQTLDTRMNLEMAVTEEMLAIAVETKPHFCCLVPEKRQEVTTEGGLDVAGQRDKMRDACKRLADAGIQVSLFIDADEEQIKAAAEVGAPFIEIHTGCYADAKTDAEQAQELARIAKAATFAASLGLKVNAGHGLTYHNVKAIAAIPEMHELNIGHALIGRAVMTGLKDAVAEMKRLMLEARG [I10L I218L] | 2.4 ± 0.35
MAELLLGVNLDHIATLRNARGTAYPDPVQAAFIAEQAGADGITVHLREDRRHITDRDVRILRQTLDTRMNLEMAVTEEMLAIAVETKPHFCCLVPEKRQEVTTEGGLDVAGQRDKMRDACKRLADAGIQVSLFIDADEEQIKAAAEVGAPFIEIITGCYADAKTDAEQAQELARIAKAATFAASLGLKVNAGHGLTYHNVKAIAAIPEMHELNIGHALIGRAVMTGLKDAVAEMKRLMLEARG [I10L H155I I218L] | 0.28 ± 0.028
MAELLLGVNLDHIATLRNARGVAYPDPVQAAFIAEQAGADGITVHLREDRRHITDRDVRILRQTLDTRMNLEMAVTEEMLAIAVETKPHFCCLVPEKRQEVTTEGGLDVAGQRDKMRDACKRLADAGIQVSLFIDADEEQIKAAAEVGAPFIEIHTGCYADAKTDAEQAQELARIAKAATFAASLGLKVNAGHGLTYHNVKAIAAIPEMHELNIGHAIIGRAVMTGLKDAVAEMKRLMLEARG [I10L T22V] | 6.01 ± 0.81
MAELLLGVNLDHVATLRNARGTAYPDPVQAAFIAEQAGADGITVHLREDRRHITDRDVRILRQTLDTRMNLEMAVTEEMLAIAVETKPHFCCLVPEKRQEVTTEGGLDVAGQRDKMRDACKRLADAGIQVSLFIDADEEQIKAAAEVGAPFIEIHTGCYADAKTDAEQAQELARIAKAATFAASLGLKVNAGHGLVYHNVKAIAAIPEMHEINIGHAIIGRAVMTGLKDAVAEMKRLMLEARG [I10L I13V T196V L212I] | 0.575 ± 0.077
MAELLLGVNLDHIATLRNARGTAYPDPVQAAFIAEQAGADGITVHLREDRRHITDRDVRILRQTLDTRMNLEMAVTEEMLAIAVETKPHFCCLVPEKRQEVTTEGGLDVAGQRDKMRDACKRLADAGIQVSLFIDADEEQIKAAAEVGAPFIEIHTGCYADAKTDAEQAQELARIAKAATFAASLGLKVNAGHGLTYHNVKAIAAIPEMHELNIGHVIIGRAVMTGLKDAVAEMKRLMLEARG [I10L A217V] | 0.48 ± 0.028
MAELLLGVNLDHVATLRNARGTAYPDPVQAAFIAEQAGADGITVHLREDRRHITDRDVRILRQTLDTRMNLEMAVTEEMLAIAVETKPHFCCLVPEKRQEVTTEGGLDVAGQRDKMRDACKRLADAGIQVSLFIDADEEQIKAAAEVGAPFIEIHTGCYADAKTDAEQAQELARIAKAATFAASLGLKVNAGHGLTYHNVKAIAAIPEMHEINIGHAIIGRAVMTGLKDAVAEMKRLMLEARG [I10L I13V L212I] | 3.48 ± 1.7
MAELLLGVNLDHIATLRNARGTAYPDPVQAAFIAEQAGADGITVHLREDRRHITDRDVRILRQTLDTRMNLEMAVTEEMLAIAVETKPHFCCLVPEKRQEVTTEGGLDVAGQRDKMRDACKRLADAGIQVSLFIDADEEQIKAAAEVGAPFIEIHTGCYADAKTDAEQAQELARIAKAATFAASLGLKVNAGHCLYYHNVKAIAAIPEMHELNIGHALIGRAVMTGLKDAVAEMKRLMLEARG [I10L G194C T196Y I218L] | 0.378 ± 0.044
MAELLLGVNLDHIATLRNARGTAYPDPVQAAFIAEQAGADGITVHLREDRRHITDRDVRILRQTLDTRMNLEMAVTEEMLAIAVETKPHFCCLVPEKRQEVTTEGGLDVAGQRDKMRDACKRLADAGIQVSLFIDADEEQIKAAAEVGAPFIEIHTGCYADAKTDAEQAQELARIAKAATFAASLGLKVNAGHCLTYHNVKAIAAIPEMHELNIGHALIGRAVMTGLKDAVAEMKRLMLEARG [I10L G194C I218L] | 1.45 ± 0.3
MAELLLGVNLDHVATLRNARGTAYPDPVQAAFIAEQAGADGITVHLREDRRHITDRDVRILRQTLDTRMNLEMAVTEEMLAIAVETKPHFCCLVPEKRQEVTTEGGLDVAGQRDKMRDACKRLADAGIQVSLFIDADEEQIKAAAEVGAPFIEIITGCYADAKTDAEQAQELARIAKAATFAASLGLKVNAGHGLTYHNVKAIAAIPEMHEINIGHAIIGRAVMTGLKDAVAEMKRLMLEARG [I10L I13V H155I L212I] | 1.66 ± 0.076
MAELLLGVNLDHIATLRNARGVTYPDPVQAAFIAEQAGADGITVHLREDRRHITDRDVRILRQTLDTRMNLEMAVTEEMLAIAVETKPHFCCLVPEKRQEVTTEGGLDVAGQRDKMRDACKRLADAGIQVSLFIDADEEQIKAAAEVGAPFIEIHTGCYADAKTDAEQAQELARIAKAATFAASLGLKVNAGHGLTYHNVKAIAAIPEMHELNIGHAIIGRAVMTGLKDAVAEMKRLMLEARG [I10L T22V A23T] | 6.93 ± 0.49
MAELLLGVNLDHIATLRNARGTWYPDPVQAAFIAEQAGADGITVHLREDRRHITDRDVRILRQTLDTRMNLEMAVTEEMLAIAVETKPHFCCLVPEKRQELTTTGGLDVAGQRDKMRDACKRLADAGIQVSLFIDADEEQIKAAAEVGAPFIEIHTGCYADAKTDAEQAQELARIAKAATFAASLGLKVNAGHGLTYHNVKAIAAIPEMHELNIGHAIIGRAVMTGLKDAVAEMKRLMLEARG [I10L A23W V101L E104T] | 1.8 ± 0.37
MAELLLGVNLDHIATLRNARGTAYPDPVQAAFIAEQAGADGITVHLREDRRHITDRDVRILRQTLDTRMNLEMAVTEEMLAIAVETKPHFCCLVPEKRQEVTTTGGLDVAGQRDKMRDACKRLADAGIQVSLFIDADEEQIKAAAEVGAPFIEIHTGCYADAKTDAEQAQELARIAKAATFAASLGLKVNAGHGLTYHNVKAIAAIPEMHELNIGHALWGRAVMTGLKDAVAEMKRLMLEARG [I10L E104T I218L I219W] | 0.561 ± 0.22
MAELLLGVNLDHIATLRNARGTAYPDPVQAAFIAEQAGADGITVHLREDRRHITDRDVRILRQTLDTRMNLEMAVTEEMLAIAVETKPHFCCLVPEKRQEVTTTGGLDVAGQRDKMRDACKRLADAGIQVSLFIDADEEQIKAAAEVGAPFIEIHTGCYADAKTDAEQAQELARIAKAATFAASLGLKVNAGHGLTYHNVKAIAAIPEMHELNIGHALMGRAVMTGLKDAVAEMKRLMLEARG [I10L E104T I218L I219M] | 0.32 ± 0.054
MAELLLGVNLDHIATLRNARGTAYPDPVQAAFIAEQAGADGITVHLREDRRHITDRDVRILRQTLDTRMNLEMAVTEEMLAIAVETKPHFCCLVPEKRQEVTTEGGLDVAGQRDKMRDACKRLADAGIQVSLFIDADEEQIKAAAEVGAPFIEIHTGCYADAKTDAEQAQELARIAKAATFAASLGLKVNAGHGLTYHNVKAIAAIPEMHEINIGHAIIGRAVMTGLKDAVAEMKRLMLEARG [I10L L212I] | 1.64 ± 0.24
MAELLLGVNLDHIATLRNARGTYYPDPVQAAFIAEQAGADGITVHLREDRRHITDRDVRILRQTLDTRMNLEMAVTEEMLAIAVETKPHFCCLVPEKRQELTTTGGLDVAGQRDKMRDACKRLADAGIQVSLFIDADEEQIKAAAEVGAPFIEIHTGCYADAKTDAEQAQELARIAKAATFAASLGLKVNAGHGLTYHNVKAIAAIPEMHELNIGHAIIGRAVMTGLKDAVAEMKRLMLEARG [I10L A23Y V101L E104T] | 0.246 ± 0.0055
MAELLLGVNLDHIATLRNARGTAYPDPVQAAFIAEQAGADGITVHLREDRRHITDRDVRILRQTLDTRMNLEMAVTEEMLAIAVETKPHFCCLVPEKRQEVTTTGGLDVAGQRDKMRDACKRLADAGIQVSLFIDADEEQIKAAAEVGAPFIEIHTGCYADAKTDAEQAQELARIAKAATFAASLGLKVNAGHGLTYHNVKAIAAIPEMHELNIGHALIGRAVMTGLKDAVAEMKRLMLEARG [I10L E104T I218L] | 3.74 ± 0.56
MAELLLGVNLDHIATLRNARGTAYPDPVQAAFIAEQAGADGITVHLREDRRHITDRDVRILRQTLDTRMNLEMAVTEEMLAIAVETKPHFCCLVPEKRQEVTTEGGLDVAGQRDKMRDACKRLADAGIQVSLFIDADEEQIKAAAEVGAPFIEIHTGCYADAKTDAEQAQELARIAKAATFAASLGLKVNAGHCLTYHNVKAIAAIPEMHELNIGHALLGRAVMTGLKDAVAEMKRLMLEARG [I10L G194C I218L I219L] | 1.09 ± 0.14
MAELLLGVNLDHIATLRNARGTAYPDPVQAAFIAEQAGADGITVHLREDRRHITDRDVRILRQTLDTRMNLEMAVTEEMLAIAVETKPHFCCLVPEKRQIVTTEGGLDVAGQRDKMRDACKRLADAGIQVSLFIDADEEQIKAAAEVGAPFIEIHTGCYADAKTDAEQAQELARIAKAATFAASLGLKVNAGHGLTYHNVKAIAAIPEMHELNIGHALIGRAVMTGLKDAVAEMKRLMLEARG [I10L E100I I218L] | 0.24 ± 0.16
MAELLLGVNLDHIATLRNARGTAYPDPVQAAFIAEQAGADGITVHLREDRRHITDRDVRILRQTLDTRMNLEMAVTEEMLAIAVETKPHFCCLVPEKRQEVTTTGGLDVAGQRDKMRDACKRLADAGIQVSLFIDADEEQIKAAAEVGAPFIEIHTGCYADAKTDAEQAQELARIAKAATFAASLGLKVNAGHGLTYHNVKAIAAIPEMHELNIGHAIIGRAVMTGLKDAVAEMKRLMLEARG [I10L E104T] | 1.1 ± 0.48
MAELLLGVNLCHIATLRNARGTTYPDPVQAAFIAEQAGADGITVHLREDRRHITDRDVRILRQTLDTRMNLEMAVTEEMLAIAVETKPHFCCLVPEKRQEVTTEGGLDVAGQRDKMRDACKRLADAGIQVSLFIDADEEQIKAAAEVGAPFIEIHTGCYADAKTDAEQAQELARIAKAATFAASLGLKVNAGHGLTYHNVKAIAAIPEMHELNIGHAIIGRAVMTGLKDAVAEMKRLMLEARG [I10L D11C A23T] | 0.22 ± 0.057
MAELLLGVNLDLIATLRNARGTAYPDPVQAAFIAEQAGADGITVHLREDRRHITDRDVRILRQTLDTRMNLEMAVTEEMLAIAVETKPHFCCLVPEKRQEVTLEGGLDVAGQRDKMRDACKRLADAGIQVSLFIDADEEQIKAAAEVGAPFIEIHTGCYADAKTDAEQAQELARIAKAATFAASLGLKVNAGHGLTYHNVKAIAAIPEMHELNIGHAIIGRAVMTGLKDAVAEMKRLMLEARG [I10L H12L T103L] | 0.18 ± 0.028
